Reference: article PMC4211651
pKd: −log10 of the molar value.

Biological target: native porcine cardiac thin filaments (F-actin plus regulatory proteins, troponin, and tropomyosin) (porcine) (UniProt P42639)
Assay: co-sedimentation

In the case of “human cardiac myosin binding protein-C N-terminal domains C0C1 (domain or fragment)”, the pKd was 5.66.
“mouse cardiac myosin binding protein-C N-terminal domains C0C1 (domain or fragment)” gave a pKd of 5.66.
